Experimental findings from patent publication US12473560 (FLAGSHIP PIONEERING INNOVATIONS VI, dated 2025) are described below.

Where two headings read alike, the source gives them in different places.

Assay [1] addresses T1, SARS-CoV-2 Spike protein receptor-binding domain (RBD) (SARS-CoV-2, UniProt P0DTC2 319-527). Description: BLI (Octet Red96e), IgG captured on anti-human Fc sensors, RBD in solution.
Assay [2] deals with SARS-CoV-2 Spike as carried on rVSV-SARS-CoV-2 pseudovirus and authentic WT virus (SARS-CoV-2, UniProt P0DTC2 14-1273). Description: cell-based or functional assay.
The target of assay [3] is T1, SARS-CoV-2 Spike protein …. Description: BLI (Octet), IgG1 captured on anti-human Fc sensors, RBD in solution. Background: BLI is a label-free optical method that tracks binding on a fibre tip over time.
The target of assay [4] is T1, SARS-CoV-2 Spike protein …. The assay is described as follows: BLI (Octet), IgG captured on anti-human Fc sensors, RBD in solution.
For assay [5], the target named is T1, SARS-CoV-2 Spike protein ….

B1: AB-1 full-length IgG1 (antibody, V domains shown)
VH: EVQLEESGTVLARPGASVKMSCKASGYTFTTYWMHWIKQRPGQGLEWIGAIYPGNSDTQYNQKFKDKAKLTAVKSTSSAYMELSSLTNEDSAVYFCTREGIPQLLRTLDYWGQGTSVTVSS
VL: DILMTQSPSSLSASLGERVSLTCRASQEISGYLSWLQEKPDGTIKRLIYAASTLDSGVPKRFSGSRSGSDYSLTISSLESEDFADYYCLQYLSYPWTFGGGTKLEIK
For orientation: Kd means the free concentration of one partner at which half of the binding sites on the other are occupied at equilibrium, for simple one-to-one binding. Low values mean a tighter complex, high ones a looser complex. For orientation: koff means the first-order rate constant of dissociation. Broadly, the kon is a measure of how fast the partners come together. Higher therefore signals faster complex formation. Take B1: in assay [1], the equilibrium dissociation constant (Kd) came out at 39 nM, the koff turned out to be 0.0024 s⁻¹ and the kon amounted to 62000 M⁻¹ s⁻¹. Moreover, in assay [2], the “Neutralization (ng/mL), Authentic Virus IC50” value was 78 ng/mL; the “Neutralization (ng/mL), Authentic Virus IC80” value is 543 ng/mL; the “Neutralization (ng/mL), Pseudovirus IC50” value was found to be 0.0782 ng/mL; the “Neutralization (ng/mL), Pseudovirus IC80” value was 2.6 ng/mL. Also, in assay [2], the “Neutralization (ng/mL), Pseudovirus IC90” value came to 9.56 ng/mL. In assay [3], this molecule gave a dissociation constant (Kd) of 15.9 nM, a Req of 0.388 nm shift, a Response of 0.364 nm shift and a kobs of 0.00924 s⁻¹. In assay [3], the off-rate (koff) came out at 0.00127 s⁻¹ and the kon was 79700 M⁻¹ s⁻¹. The dissociation constant (Kd) in assay [4] came out at 39 nM. This molecule displayed a Kd in assay [5] of 34.2 nM.

B2: AB-2 full-length IgG1 (antibody, V domains shown)
VH: EVQLEESGTVLARPGASVKMSCKASGYTFTTYWMHWIKQRPGQGLEWIGAIYPGNGDTNYNQKFKDKAKLTAVKSTSSAYMELSSLTNEDSAVYFCTREGIPQLLRTLDYWGQGTSVTVSS
VL: DILMTQSPSSLSASLGERVSLTCRASQEISGYLSWLQEKPDGTIKRLIYAASTLDSGVPKRFSGSRSGSDYSLTISSLESEDFADYYCLQYLSYPWTFGGGTKLEIK
On to B2, for which, in assay [2], the “Neutralization (ng/mL), Authentic Virus IC50” value was determined as 379 ng/mL; the “Neutralization (ng/mL), Authentic Virus IC80” value was determined as 3030 ng/mL; the “Neutralization (ng/mL), Pseudovirus IC50” value worked out at 9.65 ng/mL; the “Neutralization (ng/mL), Pseudovirus IC80” value came to 35.2 ng/mL. Further, the “Neutralization (ng/mL), Pseudovirus IC90” value in assay [2] stood at 760 ng/mL. In assay [5], this molecule had a Kd of 127 nM.

B3: AB-5 full-length IgG1 (antibody, V domains shown)
VH: EVQLEESGTVLARPGASVKMSCKASGYTFTSYWMHWIKQRPGQGLEWIGAIYPGNGDTNYNQKFKDKAKLTAVKSTSSAYMELSSLTNEDSAVYFCTREGIPQLLNTLDVWGQGTSVTVSS
VL: DILMTQSPSSLSASLGERVSLTCRASQEISGYLSWLQEKPDGTIKRLIYAASTLDSGVPKRFSGSRSGSDYSLTISSLESEDFADYYCQQYLSYPWTFGGGTKLEIK
Consider B3, for which, in assay [2], the “Neutralization (ng/mL), Authentic Virus IC50” value was determined as 260 ng/mL; the “Neutralization (ng/mL), Authentic Virus IC80” value amounted to 2460 ng/mL; the “Neutralization (ng/mL), Pseudovirus IC50” value worked out at 8.25 ng/mL; the “Neutralization (ng/mL), Pseudovirus IC80” value amounted to 35.2 ng/mL. Further, the “Neutralization (ng/mL), Pseudovirus IC90” value in assay [2] came to 71.1 ng/mL. In assay [3], this molecule came in with a Kd of 41.3 nM, a Req of 0.318 nm shift, a Response of 0.315 nm shift and a kobs of 0.0117 s⁻¹. In addition, in assay [3], the off-rate (koff) was 0.00341 s⁻¹ and the kon is 82500 M⁻¹ s⁻¹. In assay [5], binding was characterised by a dissociation constant (Kd) of 148 nM.

B4: AB-7 full-length IgG1 (antibody, V domains shown)
VH: EVQLEESGTVLARPGASVKMSCKASGYTFTSYWMHWIKQRPGQGLEWIGAIYPGNSDTNYNQKFKDKAKLTAVKSTSSAYMELSSLTNEDSAVYFCTREGIPQLLRSLDYWGQGTSVTVSS
VL: DILMTQSPSSLSASLGERVSLTCRASQEISGYLSWLQEKPDGTIKRLIYAASTLDSGVPKRFSGSRSGSDYSLTISSLESEDFADYYCLQYLSYPWTFGGGTKLEIK
B4: the “Neutralization (ng/mL), Pseudovirus IC50” value in assay [2] was 24.6 ng/mL. The same molecule showed a Kd in assay [5] of 386 nM.

B5: AB-6 full-length IgG1 (antibody, V domains shown)
VH: EVQLEESGTVLARPGASVKMSCKASGYTFTSYWMHWIKQRPGQGLEWIGAIYPGNSDTNYNQKFKDKAKLTAVKSTSSAYMELSSLTNEDSAVYFCTREGIPQLTRTLDYWGQGTSVTVSS
VL: DILMTQSPSSLSASLGERVSLTCRASQEISGYLSWLQEKPDGTIKRLIYAASTLDSGVPKRFSGSRSGSDYSLTISSLESEDFADYYCLQYLSYPWTFGGGTKLEIK
On to B5, for which, in assay [2], the “Neutralization (ng/mL), Authentic Virus IC50” value was 25000 ng/mL; the “Neutralization (ng/mL), Authentic Virus IC80” value is 25000 ng/mL; the “Neutralization (ng/mL), Pseudovirus IC50” value stood at 6.15 ng/mL; the “Neutralization (ng/mL), Pseudovirus IC80” value was 27.2 ng/mL. Further, the “Neutralization (ng/mL), Pseudovirus IC90” value in assay [2] worked out at 58.4 ng/mL. In assay [5], this molecule showed a Kd of 103 nM.

B6: AB-8 full-length IgG1 (antibody, V domains shown)
VH: EVQLEESGTVLARPGASVKMSCKASGYTFTTYWMHWIKQRPGQGLEWIGAIYPGNSDTIYNQKFKDKAKLTAVKSTSSAYMELSSLTNEDSAVYFCTREGIPQLLRTLDYWGQGTSVTVSS
VL: DILMTQSPSSLSASLGERVSLTCRASQEISGYLSWLQEKPDGTIKRLIYAASTLDSGVPKRFSGSRSGSDYSLTISSLESEDFADYYCLQYLSYPWTFGGGTKLEIK
As to B6, in assay [2], the “Neutralization (ng/mL), Authentic Virus IC50” value was determined as 222 ng/mL; the “Neutralization (ng/mL), Authentic Virus IC80” value is 1600 ng/mL; the “Neutralization (ng/mL), Pseudovirus IC50” value stood at 0.792 ng/mL; the “Neutralization (ng/mL), Pseudovirus IC80” value is 3.34 ng/mL. In addition, the “Neutralization (ng/mL), Pseudovirus IC90” value in assay [2] came out at 7.6 ng/mL. This molecule also registered a Kd in assay [5] of 104 nM.

B7: AB-3 full-length IgG1 (antibody, V domains shown)
VH: EVQLEESGTVLARPGASVKMSCKASGYTFTTYWMHWIKQRPGQGLEWIGAIYPGNGDTNYNQKFKDKAKLTAVKSTSSAYMELSSLTNEDSAVYFCTREGIPQKLRTLDVWGQGTSVTVSS
VL: DILMTQSPSSLSASLGERVSLTCRASQEISGYLSWLQEKPDGTIKRLIYAASTLDSGVPKRFSGSRSGSDYSLTISSLESEDFADYYCLQYLSYPWTFGGGTKLEIK
Take B7: in assay [2], the “Neutralization (ng/mL), Authentic Virus IC50” value came to 3550 ng/mL; the “Neutralization (ng/mL), Authentic Virus IC80” value came out at 11100 ng/mL; the “Neutralization (ng/mL), Pseudovirus IC50” value came out at 17.6 ng/mL; the “Neutralization (ng/mL), Pseudovirus IC80” value came to 110 ng/mL. Moreover, the “Neutralization (ng/mL), Pseudovirus IC90” value in assay [2] was determined as 502 ng/mL. The dissociation constant Kd in assay [5] was 177 nM.

B8: AB-4 full-length IgG1 (antibody, V domains shown)
VH: EVQLEESGTVLARPGASVKMSCKASGYTFTTYWMHWIKQRPGQGLEWIGAIYPGNGDTNYNQKFKDKAKLTAVKSTSSAYMELSSLTNEDSAVYFCTREGIPQLLRTFDYWGQGTSVTVSS
VL: DILMTQSPSSLSASLGERVSLTCRASQEIGGYLSWLQEKPDGTIKRLIYAASTLDSGVPKRFSGSRSGSDYSLTISSLESEDFADYYCLQYLSYPWTFGGGTKLEIK
B8 gave a Kd in assay [5] of 151 nM.

B9: AB-9 full-length IgG1 (antibody, V domains shown)
VH: EVQLEESGTVLARPGASVKMSCKASGYTFTSYWMHWIKQRPGQGLEWIGAIYPGNSDTNYNQKFKDKAKLTAVTSTSSAYMELSSLTNEDSAVYFCTREGIPQLLRTLDYWGQGTSVTVSS
VL: DILMTQSPSSLSASLGERVSLTCRASQEISGYLSWLQEKPDGTIKRLIYAASTLDSGVPKRFSGSRSGSDYSLTISSLESEDFADYYCLQYLSYPWTFGGGTKLEIK
B9: in assay [2], the “Neutralization (ng/mL), Authentic Virus IC50” value was determined as 100 ng/mL; the “Neutralization (ng/mL), Authentic Virus IC80” value worked out at 627 ng/mL; the “Neutralization (ng/mL), Pseudovirus IC50” value was 0.824 ng/mL; the “Neutralization (ng/mL), Pseudovirus IC80” value is 4.14 ng/mL. Moreover, the “Neutralization (ng/mL), Pseudovirus IC90” value in assay [2] is 9.95 ng/mL. This molecule yielded an equilibrium dissociation constant (Kd) in assay [5] of 98.8 nM.

B10: AB-10 full-length IgG1 (humanized) (antibody, V domains shown)
VH: QVQLVQSGAEVKKPGASVKVSCKASGYTFTSYWMHWVRQAPGQGLEWMGAIYPGNGDTNYAQKFQGRVTMTADTSISTAYMELSRLRSDDTAVYYCTREGIPQLLNTLDVWGQGTLVTVSS
VL: DIQMTQSPSSLSASVGDRVTITCRASQEISGYLNWYQQKPGKAPKRLIYAASSLQSGVPSRFSGSGSGTDFTLTISSLQPEDFATYYCQQYLSYPWTFGQGTKVEIK
In assay [3], B10 came in with an equilibrium dissociation constant (Kd) of 25.4 nM, a Req of 0.102 nm shift, a Response of 0.114 nm shift and a kobs of 0.0151 s⁻¹. Moreover, in assay [3], the koff was 0.00306 s⁻¹ and the kon amounted to 121000 M⁻¹ s⁻¹.

B11: AB-12 full-length IgG1 (humanized) (antibody, V domains shown)
VH: EVQLVQSGAEVKKPGESLKISCKASGYTFTTYWMHWVRQMPGKGLEWMGAIYPGNSDTRYSPSFQGQVTLSVDKSITTAYLQWNSLKASDTAMYFCTREGIPQLLRTLDYWGQGTLVTVSS
VL: DIQMTQSPSSLSASVGDRVTITCRASQGISGYLSWLQQKPEKAPKRLIYAASTLQSGVPSRFSGSGSGTDFTLTISSLQPEDFATYYCQQYLSYPWTFGQGTKLEIK
In the case of B11, in assay [3], the affinity, expressed as Kd, was 32.4 nM; the Req came out at 0.135 nm shift; the Response was 0.145 nm shift; the kobs was found to be 0.0149 s⁻¹. Further, in assay [3], the off-rate constant (koff) worked out at 0.00366 s⁻¹ and the on-rate (kon) was found to be 113000 M⁻¹ s⁻¹.

B12: AB-11 full-length IgG1 (humanized) (antibody, V domains shown)
VH: EVQLVQSGAEVKKSGESLKISCKASGYTFTTYWMHWVRQMPGKGLEWMGAIYPGNSDTQYSPSFQGQVTLSADKSISTAYLQWSSLKASDTAMYFCTREGIPQLLRTLDYWGQGTLVTVSS
VL: EIVLTQSPGTLSLSPGERATLSCRASQEISGYLAWLQQKPGQAPRRLIYAASSLATGIPDRFSGSGSGTDFTLTISRLEPEDFAVYYCLQYLSYPWTFGQGTKVEIK
Take B12: in assay [3], the dissociation constant (Kd) stood at 32.7 nM, the Req stood at 0.326 nm shift, the Response was determined as 0.319 nm shift and the kobs was found to be 0.0104 s⁻¹. In assay [3], this molecule returned an off-rate (koff) of 0.00255 s⁻¹ and an on-rate (kon) of 78000 M⁻¹ s⁻¹.
